Experimental data reported in publication PMC4726456.

Target: 15-residue tubulin peptide

Substance: F105A TAT mutant (from UniProt Q5SQI0 1-421) (enzyme)
- acetylation activity kept with a 15-residue tubulin peptide (data not shown): 89 % activity
